These results are taken from patent US20120021993A1 (AJOU UNIVERSITY INDUSTRY ACADEMIC COOPERATION FOUNDATION, published 2012).

Experiment [1] addresses T1, human-derived cell death receptor 5, extracellular domain (amino acid residues 1-130), 6xHis tag (human, UniProt O14763 56-210).
T1 construct: extracellular domain; Expressed in E. coli; biotinylated for sorting and flow cytometry; also called DR5; TRAIL-receptor 2
Description: ELISA, coated target, A405 [lower panel]. The method, then:
(§1) In order to measure the affinity and cross reactivity of the anti-DR4, -DR5 and -TNFα protein scaffold variants based on the Kringle domain structure to the target molecules, an enzyme-linked immunosorbent assay (ELISA) was performed. The target molecules DR4, DR5, TNFα and DcR1, DcR2 were attached to a 96 well EIA/RIA plate (COSTARCorning In., USA) by its reaction at 37° C. for 1 hour, and washed three times with 0.1% PBST (0.1% Tween20, pH 7.4, 137 mM NaCl, 10 mM Phosphate, 2.7 mM KCl, SIGMA-ALDRICH Co., USA) for 10 minutes. The target molecules were attached for 1 hour to a 96 well EIA/RIA plate in 1% PBSB (1% BSA, pH 7.4, 137 mM NaCl, 10 mM Phosphate, 2.7 mM KCl, SIGMA-ALDRICH Co., USA), and then washed three times with 0.1% PBST (0.1% Tween 20, pH 7.4, 137 mM NaCl, 10 mM Phosphate, 2.7 mM KCl, SIGMA-ALDRICH Co., USA) for 10 minutes. Then, the anti-DR4, -DR5 and -TNFα Kringle domain variants were bound, and washed three times with 0.1% PBST for 10 minutes. The anti-DR4, -DR5 and -TNFα Kringle domain variants were primarily bound to mouse-derived anti-c-myc 9e10 mAb (Ig Therapy, Korea), and secondarily bound to alkaline phosphatase (AP)-conjugated anti-mouse mAb (Sigma). Each of the Kringle domain variants was reacted with […] (pNPP, Sigma-aldrich Co., USA) and quantified at an absorbance of 405 nm.
A general note: ELISA stands for enzyme-linked immunosorbent assay.

In experiment [2] the target is T1, human-derived cell death receptor 5, …. Briefly: ELISA, coated target, A405. On the procedure:
as §1

For the next experiment, the target named is cell surface DR5 (human, UniProt O14763 56-440). Description: cell-based or functional assay.
Experiment [3] has as its target T1, human-derived cell death receptor 5, …. Briefly: ELISA, coated target, A405. On the procedure:
as §1
The source holds these as a separate data set.

Experiment [4] has as its target T2, human-derived cell death receptor 4, extracellular domain (amino acid residues 1-216), 6xHis tag (human, UniProt O00220 24-239).
T2 construct: extracellular domain; Expressed in E. coli; biotinylated for sorting and flow cytometry; residues 1-216; also called DR4; TRAIL-receptor 1
Description: yeast display, flow cytometry MFI [panel KD548]. On the technique in general: Flow cytometry measures light scatter and fluorescence of single cells or particles in a stream.

The target of experiment [5] is T1, human-derived cell death receptor 5, …. Briefly: ELISA on coated DR5, KD548 alone, A405.
Experiment [6] has the same target. Description: competitive ELISA on coated DR5, biotinylated KD548 with KD506 (amount not given), A405.
The target is the same in experiment [7]. Briefly: ELISA on coated DR5, KD548 alone, A405. The source holds these as a separate data set.
The target of experiment [8] is T2, human-derived cell death receptor 4, …. Briefly: ELISA, coated DR4, A405.
Experiment [9] has the same target. Briefly: sandwich ELISA: DR4 coated, binder titrated, soluble DR5 detected, A405.
Experiment [10] has as its target T1, human-derived cell death receptor 5, …. Briefly: ELISA, coated DR5, A405.
For experiment [11] the target is unchanged. Description: ELISA, target coated on the plate.
Experiment [12] shares this target. Briefly: ELISA, homo-dimer against monomer.
In experiment [13] the target is T2, human-derived cell death receptor 4, …. Briefly: ELISA, coated target, A405.
For experiment [14] the target is unchanged. Briefly: competitive ELISA on coated DR4, biotinylated KD413 with KD415 (amount not given), A405.
Experiment [15] shares this target. Briefly: competitive ELISA on coated DR4, biotinylated KD413 with TRAIL (amount not given), A405.
Experiment [16] has the same target. Briefly: ELISA, coated target, A405 [upper panel]. On the procedure: as §1
The target is the same in experiment [17]. Description: ELISA on coated DR4, KD413 alone, A405.
Experiment [18] shares this target. Briefly: ELISA on coated DR4, KD413 alone, A405. The source holds these as a separate data set.
A further experiment deals with cell surface DR4 (human, UniProt O00220 24-468). Briefly: cell-based or functional assay.
The target in a further experiment is T3, DcR2 (UniProt Q9UBN6 56-211, limits assumed).
T3 sequence (looked up): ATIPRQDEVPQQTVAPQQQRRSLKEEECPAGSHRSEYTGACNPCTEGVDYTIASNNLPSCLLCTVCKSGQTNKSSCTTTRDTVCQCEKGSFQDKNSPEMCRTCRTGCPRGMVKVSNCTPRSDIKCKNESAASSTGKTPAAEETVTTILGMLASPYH
Description: ELISA, coated target, single binder concentration not given, A405. The method, then: as §1

The target of experiment [19] is T4, DcR1 (UniProt O14798 26-221, limits assumed).
T4 sequence (looked up): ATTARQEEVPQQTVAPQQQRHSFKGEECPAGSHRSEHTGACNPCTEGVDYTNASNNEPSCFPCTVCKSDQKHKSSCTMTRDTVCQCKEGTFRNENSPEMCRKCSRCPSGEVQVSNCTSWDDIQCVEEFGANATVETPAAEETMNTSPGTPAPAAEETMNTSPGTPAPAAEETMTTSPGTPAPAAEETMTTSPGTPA
Briefly: yeast display, flow cytometry MFI [panel KD413].

Experiment [20] deals with T2, human-derived cell death receptor 4, …. Description: ELISA, coated target, A405. The method, then:
as §1, with “The anti-DR4, -DR5 and -TNFα Kringle domain variants were primarily bound to mouse-derived anti-c-myc 9e10 mAb (Ig Therapy, Korea), and secondarily bound to alkaline phosphatase (AP)-conjugated anti-mouse mAb (Sigma).” left out
In order to analyze the affinities of the Fc-fused anti-DR4, -DR5 and -TNFα Kringle domains to target molecules, the affinities of the Fc-fused anti-DR4, -DR5 and -TNFα Kringle domains to the target molecules were analyzed using ELISA, as described in Example 8.
This is another data set of the same source.

For experiment [21] the target is unchanged. Briefly: ELISA, coated target, A405 [lower panel]. On the procedure:
as §1

The target is the same in experiment [22]. Description: ELISA, coated target, A405. On the procedure:
as §1
This is another data set of the same source.

Experiment [23] has the same target. Briefly: competitive ELISA on coated DR4, biotinylated KD415 with TRAIL (amount not given), A405.
Experiment [24] has as its target T4, DcR1. Briefly: ELISA, coated target, single binder concentration not given, A405. The method, then:
as §1

Experiment [25] addresses T2, human-derived cell death receptor 4, …. Description: ELISA on coated DR4, KD415 alone, A405.

B1: KD548 (designed binder)
chain: CHQTQGPKYDGNKDKTHKGHKCQSWTKNRPHHHGNKIENEDENRFQKNYCRNPDNKHEPWCFTHGHRDKHELCHEPRC
notes: Soluble monomer from Pichia pastoris; also called anti-DR5 Kringle domain variant KD548; not shown: C-terminal myc tag-6xHis tag of pPICZaA
The EC50 (read off the curve) is the concentration that produces a half-maximal response. A low value points to a more potent agent. In the case of B1, the 50% effective concentration (EC50 (read off the curve)) in experiment [1] was roughly 0.2 µM; in [2], roughly 0.2 µM; in [3] it was roughly 0.6 µM; in experiment [5] it was roughly 0.9 µM; in experiment [6] it was roughly 0.6 µM; in [7] it was roughly 0.6 µM. In the experiment with cell surface DR5, the “EC50 (a concentration of protein causing a 50% cell death), HL60, MTT assay” value amounted to 0.26 µM. Also, the binding result in [4] was “binds”.

B2: KD413-KD506 hetero-dimer (designed binder, not shown: small tags and cut ends)
chain: CAKAEGTGYDGHEHKTHKGIRCQNWYKSKPHYHGHQFRDGDKIKNKKNYCRNPDPRAGPWCFTHGNRNRYELCNQPRCGGGGSGGGGSGGGGSGGGGSCPEDRGHEYDGDGDKTNRGHGCQYWDQNKPHHHGHRDKDKFKHRIKKNYCRNPDYETGPWCFTNRYRNKNELCHEPRC
On to B2, for which the “EC50 (read off the curve)” value was roughly 0.3 µM in [8], roughly 0.2 µM in [9] and roughly 0.2 µM in [10].

B3: anti-DR5 KD548 homo-dimer (designed binder)
chain: CHQTQGPKYDGNKDKTHKGHKCQSWTKNRPHHHGNKIENEDENRFQKNYCRNPDNKHEPWCFTHGHRDKHELCHEPRCGGGGSGGGGSGGGGSGGGGSCHQTQGPKYDGNKDKTHKGHKCQSWTKNRPHHHGNKIENEDENRFQKNYCRNPDNKHEPWCFTHGHRDKHELCHEPRC
B3 displayed an affinity value in experiment [11] of 53 nM. In addition, the “fold increase of affinity against the monomer” value in experiment [12] was roughly 10 fold.

B4: KD413 (designed binder)
chain: CAKAEGTGYDGHEHKTHKGIRCQNWYKSKPHYHGHQFRDGDKIKNKKNYCRNPDPRAGPWCFTHGNRNRYELCNQPRC
notes: Soluble monomer from Pichia pastoris; also called anti-DR4 Kringle domain variant KD413; not shown: C-terminal myc tag-6xHis tag of pPICZaA
In the case of B4, the “EC50 (read off the curve)” value in [13] is roughly 0.1 µM; in [14] it was roughly 0.4 µM; in [15] it was roughly 0.8 µM; in experiment [16] it was roughly 0.2 µM; in experiment [17] it was roughly 0.2 µM; in experiment [8] it was roughly 0.2 µM. Further, the 50% effective concentration (EC50 (read off the curve)) in experiment [18] was roughly 0.8 µM; in experiment [20], roughly 0.1 µM. Further, the “EC50 (a concentration of protein causing a 50% cell death), Jurkat, MTT assay” value with cell surface DR4 stood at 0.09 µM. Also, the binding result in the experiment with DcR2 and with DcR1 [19] was “no binding” throughout.

B5: KD415 (designed binder)
chain: CTRSKGDEYDGHKHKTNRGLRCQHWPGTKPHFHGDKIKDRHGFRLKKNYCRNPDPQDQPWCFTNRHQHKNELCNQPRC
notes: Soluble monomer from Pichia pastoris; also called anti-DR4 Kringle domain variant KD415; not shown: C-terminal myc tag-6xHis tag of pPICZaA
Take B5: the half-maximal effective concentration (EC50 (read off the curve)) was roughly 0.3 µM in experiment [13]; roughly 0.3 µM in [21]; roughly 0.3 µM in experiment [22]; roughly 0.2 µM in experiment [23]; roughly 0.2 µM in experiment [25]. In the experiment with cell surface DR4, the “EC50 (a concentration of protein causing a 50% cell death), HL60, MTT assay” value stood at 0.13 µM. Also, in the experiment with cell surface DR4, the “EC50 (a concentration of protein causing a 50% cell death), Jurkat, MTT assay” value worked out at 0.2 µM. Also, the binding result with DcR1 [24] and in the experiment with DcR2 was “no binding” in each case.

B6: anti-DR5 KD506 homo-dimer (designed binder)
chain: CPEDRGHEYDGDGDKTNRGHGCQYWDQNKPHHHGHRDKDKFKHRIKKNYCRNPDYETGPWCFTNRYRNKNELCHEPRCGGGGSGGGGSGGGGSGGGGSCPEDRGHEYDGDGDKTNRGHGCQYWDQNKPHHHGHRDKDKFKHRIKKNYCRNPDYETGPWCFTNRYRNKNELCHEPRC
With B6, the affinity value in experiment [11] is 31 nM. Further, in [12], the “fold increase of affinity against the monomer” value was roughly 10 fold.
